Measured values taken from US20240376151A1, “STAPLED PEPTIDES AND METHODS THEREOF” (FOG PHARMACEUTICALS, INC., priority 2022, published 2024).
Numbered stars: 1 amine (or outer) side, 2 acyl side, 3 side chain; on linkers, the order of the positions; unused ones are H or OH. Bridge positions count the residues as written; N and C are the ends. Ends that are not written are not given here. Phenylene(1,4-NHCOCH2)2 = O=C(C[*:1])Nc1ccc(NC(=O)C[*:2])cc1

Legend:
[1] = target: T1, PPIA (Homo sapiens, UniProt P62937); experiment: Phage Library Screening with NGS, PPIA; assay type: binding
T1 construct: Full length PPIA (residues 1-165) with an N-terminal 6×his-yBBR-TEV tag; 6×his-yBBR-TEV (N); made in house; host or cells: E. coli BL21 (DE3) CodonPlus RIPL
T1 sequence (P62937 whole entry, the tested form may be a part): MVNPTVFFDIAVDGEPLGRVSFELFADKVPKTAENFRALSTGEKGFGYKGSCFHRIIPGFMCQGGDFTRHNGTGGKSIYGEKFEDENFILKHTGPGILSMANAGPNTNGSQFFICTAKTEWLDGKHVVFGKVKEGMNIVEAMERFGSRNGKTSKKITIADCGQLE

[2] = target: T2, MDM2 (Homo sapiens, UniProt Q00987); experiment: Naive Library Presenter Screening (phage, NGS), MDM2; assay type: binding; conditions: for interaction data, BLANK: Blank = Media only
T2 construct: made in house
T2 sequence (Q00987 25-109): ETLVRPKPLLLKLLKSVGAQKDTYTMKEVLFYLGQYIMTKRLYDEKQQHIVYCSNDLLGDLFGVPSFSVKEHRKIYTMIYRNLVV

[3] = target concentration 1000, first column
[4] = target concentration 1000, second column
[5] = MDM2 clusters (C82, C85), first column
[6] = MDM2 clusters (C82, C85), second column
[7] = MDM2 clusters (C82, C85), target concentration 10 nM
[8] = MDM2 clusters (C82, C85), target concentration 30 nM
[9] = MDM2 clusters (C82, C85), target concentration 100 nM
[10] = MDM2 clusters (C82, C85), target concentration 300 nM
[11] = MDM2 clusters (C82, C85), target concentration 1000 nM, first column
[12] = MDM2 clusters (C82, C85), target concentration 1000 nM, second column

Sequence | phage screen counts, Target Concentration 10 [1] | phage screen counts, Target Concentration 30 [1] | phage screen counts, Target Concentration 100 [1] | phage screen counts, Target Concentration 300 [1] | phage screen counts, Target Concentration 1000 [1, 3] | phage screen counts, Target Concentration 1000 [1, 4] | also measured
DPAAFSCHVAAWQCHTL | 0 | 1 | 156 | 199 | 142 | 190 | –
DPAQADCHIAAYLCLFD | 0 | 0 | 10 | 19 | 25 | 18 | –
DPAQLNCHVAAFFCFQS | 0 | 0 | 21 | 27 | 125 | 8 | –
DPARAACHVAAYWCYHQ | 0 | 1 | 3 | 7 | 6 | 7 | –
DPARADCHVAAYWCHHQ | 0 | 0 | 4 | 5 | 8 | 7 | –
DPARADCHVAAYWCYHR | 0 | 1 | 6 | 6 | 7 | 6 | –
DPARADCHVAAYWCYQQ | 0 | 1 | 6 | 8 | 10 | 10 | –
DPARADCQVAAYWCYHQ | 0 | 3 | 13 | 16 | 20 | 21 | –
DPARYSCHVAAYECILN | 0 | 0 | 17 | 14 | 41 | 27 | –
DPASYDCHVAAYFCNFA | 6 | 10 | 176 | 197 | 190 | 227 | –
DPATMNCHVAAYFCIVE | 0 | 0 | 10 | 13 | 10 | 19 | –
DPAYASCFSAAWDCQFW (linker 7-14 via Phenylene(1,4-NHCOCH2)2 (inferred)) | – | – | – | – | – | – | interaction data at Target Concentration 10 ([2]; MDM2 target concentration 10 nM): 0; interaction data at Target Concentration 30 ([2]; MDM2 target concentration 30 nM): 0; interaction data at Target Concentration 100 ([2]; MDM2 target concentration 100 nM): 19; interaction data at Target Concentration 300 ([2]; MDM2 target concentration 300 nM): 21; interaction data at Target Concentration 1000 ([2]; MDM2 target concentration 1000 nM, first column): 13; interaction data at Target Concentration 1000 ([2]; MDM2 target concentration 1000 nM, second column): 38
DPAYEDCFFAAWNCMMV (linker 7-14 via Phenylene(1,4-NHCOCH2)2 (inferred)) | – | – | – | – | – | – | interaction data, BLANK [2, 5]: 0; interaction data, BLANK [2, 6]: 0; interaction data at Target Concentration 10 [2, 7]: 0; interaction data at Target Concentration 30 [2, 8]: 5; interaction data at Target Concentration 100 [2, 9]: 18; interaction data at Target Concentration 300 [2, 10]: 17; interaction data at Target Concentration 1000 [2, 11]: 23; interaction data at Target Concentration 1000 [2, 12]: 39
DPAYSDCFQAAWTCMIH (linker 7-14 via Phenylene(1,4-NHCOCH2)2 (inferred)) | – | – | – | – | – | – | interaction data, BLANK [2, 5]: 0; interaction data, BLANK [2, 6]: 0; interaction data at Target Concentration 10 [2, 7]: 0; interaction data at Target Concentration 30 [2, 8]: 78; interaction data at Target Concentration 100 [2, 9]: 135; interaction data at Target Concentration 300 [2, 10]: 155; interaction data at Target Concentration 1000 [2, 11]: 110; interaction data at Target Concentration 1000 [2, 12]: 150
DPAYTQCSDAAFMCWWW (linker 7-14 via Phenylene(1,4-NHCOCH2)2 (inferred)) | – | – | – | – | – | – | interaction data, BLANK [2, 5]: 0; interaction data, BLANK [2, 6]: 0; interaction data at Target Concentration 10 [2, 7]: 0; interaction data at Target Concentration 30 [2, 8]: 19; interaction data at Target Concentration 100 [2, 9]: 32; interaction data at Target Concentration 300 [2, 10]: 48; interaction data at Target Concentration 1000 [2, 11]: 65; interaction data at Target Concentration 1000 [2, 12]: 62
PDCHIAAWYCR | 0 | 0 | 0 | 0 | 11 | 10 | –
PDCHIASWFCS | 0 | 0 | 0 | 3 | 25 | 5 | –
PDCHIQAYICH | 0 | 0 | 0 | 4 | 6 | 35 | –
PDCHIRAYVCH (Ac-PDCHIRAYVCH-NH2; bridge 3-10; also: Cys-Cys staple, linker not named) | 0 | 0 | 1 | 8 | 11 | 120 | –

Second part, led by results:

phage screen counts, Target Concentration 10 [1] | phage screen counts, Target Concentration 30 [1] | phage screen counts, Target Concentration 100 [1] | phage screen counts, Target Concentration 300 [1] | phage screen counts, Target Concentration 1000 [1, 3] | phage screen counts, Target Concentration 1000 [1, 4] | Sequence | also measured
0 | 7 | 116 | 208 | 201 | 121 | DPAAHDCHIAAYWCLNY | –
0 | 0 | 25 | 29 | 20 | 55 | DPALFDCHIAAYQCIFY | –
0 | 52 | 273 | 416 | 616 | 456 | DPAQHDCHVAAYQCIWE | –
0 | 1 | 4 | 7 | 9 | 7 | DPARADCHVAAYWCYHE | –
0 | 1 | 6 | 6 | 11 | 7 | DPARADCRVAAYWCYHQ | –
0 | 0 | 4 | 5 | 6 | 6 | DPARSDCHVAAYWCYHQ | –
0 | 5 | 13 | 14 | 18 | 25 | DPARTDCHVAAYWCYHQ | –
16 | 62 | 77 | 106 | 93 | 131 | DPAYYDCHIAAYFCRTQ | –
0 | 0 | 0 | 0 | 20 | 26 | PDCHIRAYMCN | –
0 | 0 | 1 | 5 | 8 | 18 | PDCHIYAFYCL | –
0 | 0 | 1 | 47 | 47 | 115 | PDCHLNAYWCM | –
0 | 0 | 0 | 8 | 16 | 26 | PDCHVAAWMCF | –
